These results are taken from patent publication US6340783B1, “Rodent models of human amyloidoses” (University of Washington, priority 1992, dated 2002).

The target of one assay is T1, BAP (1-28) (Homo sapiens, UniProt P05067).
T1 construct: residues 1-28 of BAP or residues 597-624 of BAPP; purchased Bachem Inc., Torrance, Calif; host or cells: synthetic peptide
As to the kind of experiment: Solid phase binding assay, Scatchard analysis of 125I-BAP (1-28) binding to high Mr HSPG. As for the experimental part:
Nitrocellulose coated wells were incubated overnight at room temperature with 100 μl of TBS containing 1.5 μg (with 0.28 μg binding to the well) of high Mr HSPG. Wells were blocked overnight at room temperature with 200 μl of 5% non-fat dried milk. After blocking, wells were rinsed 3 times with 200 μl of TBS. Various quantities of ^125I-BAP (1-28) (specific activity=6,683 cpm/pm) diluted in 100 μl of TBS/0.05% Tween 20 was added in triplicate to wells and incubated for 2.5 hours at room temperature on an orbital shaker. At the end of the incubation period, free ^125I-BAP was removed from each well and transferred to scintillation vials for counting. In addition, each well was washed 6 times with 200 μl of TBS/0.05% Tween 20, and the wash was added to each of the same scintillation vials described above, to determine the total “free” 125I-BAP fraction for each well. Bound ^125-BAP was extracted from wells by incubation with 100 μl of 1N NaOH at room temperature for 1 hour, and quantitated by liquid scintillation counting. Recovery of ^125I-BAP as free and bound radioactivity exceeded 90%. […] Bars indicate standard error of the mean.
^125I-HSPG (specific activity=1,104 cpm/ug) isolated from EC culture media was used to determine the amount of HSPG which bound to microtiter wells. Polyvinyl microtiter wells were coated with 100 μl of nitrocellulose solution (Schleicher and Schuell) (10 cm^2 of BA85 nitrocellulose in 10 ml of methanol) and allowed to dry at room temperature for 4 hours. Wells were coated overnight at room temperature with unlabeled HSPG to give 0.12 μg or 0.28 μg of bound-HSPG per well, and blocked overnight at room temperature with 200 μl of 5% non-fat dried milk (Carnation Co., Los Angeles, Calif.). Various quantities of 125I-BAP (residues 1-28) (specific activity=6,683 cpm/pm) diluted in 100 μl of TBS/0.05% Tween 20 were added in triplicate to wells and incubated for 2.5 hours at room temperature on an orbital shaker. At the end of the incubation. period, free ^125I-BAP was then removed with 6 washes of TBS/0.05% Tween 20. Bound ^125I-BAP was extracted from wells by incubation with 100 μl of 1N NaOH at room temperature for 1 hour, and “bound” versus “free” radioactivity was quantitated by liquid scintillation counting. Recovery of ^125I-BAP as free and bound radioactivity exceeded 90%. A set of controls using 5% BSA-coated wells was also included in all experiments.
To quantitate the interaction between the high Mr HSPG and BAP (1-28), 0.12 μg or 0.28 μg of the HSPG (isolated from the culture media of ECs; see FIG. 9B, lane 1) were immobilized on nitrocellulose coated wells and incubated with increasing concentrations of ^125I-BAP.

A further assay deals with T2, mutated β/A4 (1-28) (Homo sapiens, UniProt P05067, H684G/H685G/K687G).
T2 construct: residues 1-28 of BAP or residues 597-624 of BAPP
Put plainly: Affinity column with β/A4 (1-28) mutated in the putative heparin binding domain. To be noted: histidine, histidine and lysine changed to glycine; versus normal β/A4 (1-28) column. An excerpt: As described above, residues 12-17 of the β/A4 (-valine-histidine-histidine-glutamine-lysine-leucine-) conform to a consensus sequence for a potential heparin/heparan sulfate binding domain. This has been recently confirmed by our studies, whereby comparisons were made using column affinity chromatography. One affinity column contained β/A4 (1-28), whereas the other affinity column contained β/A4 (1-28) with three amino acid substitutions of the putative heparin binding domain (i.e. the basic amino acids histidine, histidine and lysine where changed to glycine, and therefore were now uncharged instead of basic amino acids). ^125I-HSPG bound with high affinity to normal β/A4 (1-28) affinity column, whereas a 50-60% decrease in HSPG binding to the mutated β/A4 (1-28) was observed.

Read-outs that look alike come from different tables or passages of the source.

The Kd is a measure of binding affinity in units of concentration.

For “high Mr HSPG: ˜600-800 kDa heparan sulfate proteoglycan isolated from culture media of bovine aortic endothelial cells”, the dissociation constant Kd with BAP (1-28) (125I-BAP (1-28), Scatchard analysis, HSPG on nitrocellulose coated wells, read-out: Kd of the high affinity binding site) was 0.083 nM; in the assay with BAP (1-28) (125I-BAP (1-28), Scatchard analysis, HSPG on nitrocellulose coated wells, read-out: Kd of the low affinity binding site), 42 nM; with BAP (1-28) (binding to BAP/β/A4 (1-28), read-out: Kd of the low affinity binding site (unit inferred)) it was 42 nM. Further, the “moles of BAP bound by 1 mole of HSPG” value with BAP (1-28) (assuming molecular weights of 700,000 and 2,800) was roughly 1.8 mol. Moreover, in the assay with mutated β/A4 (1-28), the “decrease in HSPG binding to mutated β/A4 (1-28)” value is recorded as 50-60%.
